Measurements reported in article PMC1626583.

Target: FIII9–10 mutant Ala5, GST fusion protein (human)
Experiment: SPR

“integrin α5β1 (from UniProt P05556 21-798) (receptor)” showed a Kd of 63 nM.
